The source of these data is article PMC10192527, “A metal ion-dependent mechanism of RAD51 nucleoprotein filament disassembly”.

The target of data set [1] is T1, RAD51 (Homo sapiens, UniProt Q06609 1-339). The data set is described as follows: cryo-EM structure (3.8 A); Ca2+, ATP (pre-synaptic filament; two Ca2+ per ATP site); EMSA: 25 mM HEPES pH 7.5, 150 mM NaCl, 2 mM DTT, 5 mM CaCl2, 2 mM ATP or 0.5-10 mM ADP, 25 C 15 min; 0.5% agarose in 0.5x TB at 4 C. The settings on record: protein: recombinant; tags: none stated on the final protein; co-expressed with His6-MBP-BRCA2 BRC4 (pMBP4-RAD51); chain copies: 10; single strand.
T1 sequence (Q06609 whole entry): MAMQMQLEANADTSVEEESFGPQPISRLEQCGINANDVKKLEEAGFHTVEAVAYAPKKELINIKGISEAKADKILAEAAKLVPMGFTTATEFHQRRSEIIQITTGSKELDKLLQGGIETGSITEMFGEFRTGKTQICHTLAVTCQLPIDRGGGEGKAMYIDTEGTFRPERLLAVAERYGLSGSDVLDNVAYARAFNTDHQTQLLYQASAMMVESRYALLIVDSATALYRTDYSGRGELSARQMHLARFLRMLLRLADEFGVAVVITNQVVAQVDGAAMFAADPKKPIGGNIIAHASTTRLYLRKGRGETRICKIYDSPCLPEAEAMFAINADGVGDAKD

For data set [2], the target named is T1, RAD51. The data set is described as follows: cryo-EM structure; ATP, Ca2+ (post-synaptic filament; second metal ion present); EMSA: 25 mM HEPES pH 7.5, 150 mM NaCl, 2 mM DTT, 5 mM CaCl2, 2 mM ATP or 0.5-10 mM ADP, 25 C 15 min; 0.5% agarose in 0.5x TB at 4 C. The settings on record: protein: recombinant; tags: none stated on the final protein; co-expressed with His6-MBP-BRCA2 BRC4 (pMBP4-RAD51); chain copies: 16; blunt ends, internal 10-nt mismatched bubble.

B1: x60 ssDNA 60mer (ssDNA)
DNA: ATGGTGTGTGTAGGTTAATGTGAGGAGGAGAGGTGAAGAAGGAGGAGAGAAGAAGGAGGC
For the molecule B1, in data set [1], the binding result is on record as “binds”.

B2: R51-14:R51-15 (post-synaptic filament DNA) (dsDNA)
DNA 1: TGGAGGTGCATCGAGCTCGCGACAAACCTTCTATGTTGAGCGTCAGTCGG
DNA 2: CCGACTGACGCTCAACATAGGTACCACACGGCGAGCTCGATGCACCTCCA
On to B2, for which the binding result in data set [2] was “binds”.
